Results from patent US20040170601A1, “Method of improving the growth performance of an animal” (priority 2001, published 2004).
“And” between values parts separate entries of the source, which are not always exact repeats. Equal values may be shown once. “Also recorded” adds a separate entry of the source.

Legend:
eosinophils [1] = experiment: Example 11: IL-5 and IL-3 on eosinophil production; assay type: in vivo, pigs; settings: single cytokine 100 μg IM days 0, 3, 7, 10
Excerpt: The aim of this example was to determine if the effects of IL-3 and IL-5 act synergistically to increase eosinophil levels and antibody production.
As IL-3 stimulates the proliferation of pre-active B cells prior to the effects of IL-5, it was believed that administration of both IL-3 and IL-5 would have a greater impact on eosinophil production than the administration of either cytokine alone. An experiment was undertaken using pigs raised under clean PC2 conditions with raised floors. There were 5 treatments with 6 pigs per treatment. Pigs were 5-6 weeks of age. The animals were injected intramuscularly on days 0, 3, 7 and 10 of the experiment with either recombinant cytokines or saline. The treatments include IL-5 and IL-3 alone and given either together at the same time at different sites or to the same animal but with IL-3 being administered one week before IL-5. The treatments were as follows:
Group 3—100 μg IL-3+100 μg IL-5 (separate sites)
The pigs were bled 4 times per week for the first 2 weeks and once per week for the following 2 weeks and haematology measured using a CellDyn machine. Sera were collected also each week and tested for antibody levels.

[2] = system: cell populations in the blood; experiment: Example 9: porcine IL-3 on blood cell populations; assay type: in vivo, pigs
Protocol: This trial examined the effect of administering recombinant porcine IL-3 protein on cell populations in the blood of pigs.
(§1) The experiment was conducted using medicated feed (Barastoc EziWean 150 then Bunge Grolean) ad libitum in an experimental environment (PC2 containment facilities).
Injections were administered intramuscularly in the hind leg. Pigs were 9 weeks of age at commencement of trial.
Blood samples were taken for haematology on days 0, 1, 2, 3, 4, 7, 9, 11, 15 and 17. Full haematology analysis was performed, using the Abbott Cell-Dyn 3700 and examination of selected smears were done for confirmation.

eosinophils [3] = experiment: Example 10: porcine IL-3 on cell populations over a longer duration; assay type: in vivo, pigs; settings: 100 μg IL-3 twice weekly for 2 weeks, followed to day 57
Protocol: This trial compared the effects of recombinant porcine IL-3 protein on eosinophil numbers in the blood of pigs over 8 weeks.
as §1
Injections were administered intramuscularly in the hind leg. Pigs were 5 weeks of age at commencement of trial. Blood samples were taken for haematology on days 0 (prior to injection), 1, 2, 3, 4, 7, 8, 10, 11, 15, 22, 29, and 57. Full haematology analysis was performed, using the Abbott Cell-Dyn 3700. Examination of selected smears was done for confirmation.

[4] = Example 8: growth performance of pigs administered IL-3 in a commercial piggery; assay type: in vivo
Protocol: This trial evaluated the capacity of IL-3 to improve growth performance and immunity of pigs by comparing the growth rate and health of weaner pigs (28 day old weaners is Day 0 of the trial and the weaner period continued for 42 days) through to the finisher stage (Days 93 to 113) and slaughter (133 days after commencing the trial), which were administered with the recombinant porcine cytokine, IL-3, and saline was used as a control, with and without standard weaner medicated water and feed in a commercial piggery environment.
40 pigs per treatment were mixed in groups, with 4 replicates containing standard medicated water and feed and 4 replicates without medicated feed or water.
Overall weights for each group at the start of the experiment were equivalent. All pigs at the start of the trial (Day 0) were 28 day old male weaners.
IL-3 was provided in saline to inject 1 ml/pig.
Weights were measured at start, throughout the experiment and at the end of experiment. The trial continued for 133 days after the commencement ie. final weights were determined and animals slaughtered 133 days after the start of the weaning period. Weaning Days 0-42, Grower period Days 42-93, Finisher period Days 93-133. Treatments were administered during the weaner period only.
Blood and sera samples collected at start (before treatments) and end of the weaner period. Blood and sera were taken prior to injecting samples.
Recombinant porcine IL-3 was expressed in E. coli and purified using a polyHis tag system as described in Example 4. IL-3 was tested for biological activity in a bioassay prior to the start of the experiment.

[5] = system: Brachyspira (Serpulina) hyodysenteriae; experiment: Example 13: swine dysentery challenge, IL-4 prophylactic; assay type: in vivo, pigs
Excerpt: The aim of this example was to determine whether IL-4 could improve the health of pigs infected with an enteric inflammatory pathogen causing swine dysentery, Brachyspira (Serpulina) hyodysenteriae. A further aim was to determine whether IL-4 could improve the growth rate of pigs under conditions of challenge with swine dysentery.
Male pigs with a mean starting weight of 6.5 kg, were allocated to treatment groups consisting of eight pigs (Table 10). Pigs were housed in group pens, with each pen containing a replicate from each of the treatment groups. One group of 8 pigs was housed in a separate room and left uninfected to act as untreated controls. Pigs were provided with pelleted feed and water ad libitum.
Prior to swine dysentery challenge, pigs were treated with recombinant IL-4 or saline, as described in Table 10. Cytokines and the antibiotic, Lincocin, were delivered by intramuscular injection at intervals outlined in Table 11. Pigs were infected with Brachyspira hyodysenteriae at day 0, day 1 and day 2, given as an oral bolus of 120ml of spirochaete culture in log phase of growth, containing approximately […] cells.
Faecal swabs and blood samples were taken from each pig at intervals described in Table 11. Faecal swabs were cultured for the presence of spirochaetes. Blood samples were assayed for immunological parameters as described in example 1 above. Pigs were weighed at weekly intervals throughout the experiment, which was terminated by euthanasia on days 19 and 20 after the initial challenge. At post mortem swabs from areas of the hindgut were cultured for the presence of spirochaetes, and the gross pathological condition of the gastro-intestinal tissue noted.

IL-6 = experiment: Example 12: IL-6 in peripheral blood by RT-PCR after App challenge; assay type: in vivo, pigs; settings: day 13 after challenge
Protocol: (§2) Due to the intermittent availability of Actinobacillus pleuropneumoniae (App), the App challenge was performed separately on the 2 rooms, resulting in different time schedules for each room, as outlined in Table 9. Prior to each challenge, pigs were treated with recombinant cytokines, flunix or plasmids as described above; the timing of treatments with respect to challenge is described in Table 9. Pigs were anaesthetised and infected intratracheally with 7.5×10^5 […] on day 0.
(§3) […] Blood was assayed for immunological parameters as previously described.
(§4) Briefly, assays were performed on blood samples using standard techniques, including: white blood cell counts performed using an automated cell counter; differential cell counts performed manually on stained blood smears; lymphocyte subset enumeration via flow cytometry; neutrophil function determined by flow cytometry; lymphocyte proliferation determined using a thymidine incorporation assay in response to mitogens; total IgG and IgA levels were identified using indirect sandwich ELISA; levels of mRNA for pro-inflammatory cytokines was detected by RT-PCR. TNF levels were additionally measured in serum by bioassay using L929 target cells. Pigs were weighed weekly from delivery of plasmids and for 2 weeks after challenge.

[6] = system: Actinobacillus pleuropneumoniae; experiment: Example 12: Actinobacillus pleuropneumoniae (App) challenge: growth, clinical signs, lung pathology; assay type: in vivo, pigs
Excerpt: The following experiment was designed to determine whether IL-4 could improve the growth of immunologically challenged pigs compared to saline treated controls and positive controls treated with the non-steroidal anti-inflammatory drug (NSAID) Flunix. It was also devised to determine whether IL-4 could be delivered via plasmids.
Male pigs, with a mean starting weight of 52 kg, were allocated to 5 treatment groups (Table 8). Pigs were housed in group pens, with each pen containing a replicate from each of the treatment groups. Pigs were provided with pelleted feed and water ad libitum.
Recombinant IL-4 and saline were administered as 2 ml doses, given subcutaneously behind the ear. Plasmids were administered in 1 ml doses, given intramuscularly in the hind-leg. Flunix was administered as a 2 ml dose according to the manufacturer's instructions, and delivered intramuscularly in the neck. The timetable of administration is outlined in Table 9 below.
as §2, §4
IL-4 delivered as a recombinant caused a reduction of 36% in the presence of clinical symptoms compared to pigs treated with saline, while IL-4 delivered in plasmid form produced a reduction of 62% compared to saline-treated controls (45% reduction compared to plasmid-treated controls).
At the conclusion of the trial, pigs were euthanased and the lungs removed for post-mortem examination. Lungs were scored for pleurisy from 0-5 (FIG. 79) and the degree of pleuropneumonia was determined by weighing affected lung and expressed as a percentage of total lung weight (FIG. 80).

TNFα = experiment: Example 12: TNFα in serum after App challenge (bioassay, L929 target cells); assay type: in vivo, pigs; settings: day 13 after challenge
Protocol: as §2, §3, §4

[7] = day 7 prior to challenge to slaughter at days 19 and 20

Molecule: interleukin 3 [IL-3]
- eosinophils as a percent of white blood cells (eosinophils [1]): did not significantly increase the percentage of eosinophils; also recorded: minor increases in comparison
- absolute eosinophils in blood ([2]; 100 μg IL-3 daily for 5 days): increase in eosinophils
- absolute eosinophils in blood ([2]; 500 μg IL-3 single dose on day 0): smaller increases
- basophil numbers ([2]; pig, in vivo): increase in basophil numbers
- eosinophil index (area under the curves) ([2]; pig, in vivo): although there was a biological trend it was not statistically significant
- absolute numbers of eosinophils in peripheral blood (eosinophils [3]): statistically significant increase in eosinophils
- average warm carcass weight at slaughter above respective saline control ([4]; medicated): approximately 4 kg/pig
- average weights during the trial ([4]; medicated): consistently showed higher average weights than all other groups
- final average weight higher than saline medicated control ([4]; medicated): over 3.5 kg
- increase in total weight of all pigs compared to saline medicated group ([4]; medicated): approximately 10%
- individual weight range ([4]; medicated): more consistent weight range than other groups
- rate of gain during the weaner period ([4]; medicated and un-medicated): increased the rate of gain over the medicated and un-medicated saline controls
- FCR (food conversion ratio) ([4]; medicated, finisher stage): 2.52
- % dressing ([4]; un-medicated): substantially higher % dressing than the respective un-medicated saline control
- average warm carcass weight at slaughter above respective saline control ([4]; un-medicated): ~2 kg/pig

B1: interleukin 4 (protein, UniProt Q04745 25-133, looked up)
Interleukin-4: HKCDITLQEIIKTLNILTARKNSCMELPVTDVFAAPENTTEKETFCRASTVLRHIYRHHTCMKSLLSGLDRNLSSMANMTCSVHEAKKSTLKDFLERLKTIMKEKYSKC
notes: recombinant IL-4 protein
- spirochaete shedding in faeces (faecal culture) ([5]; after challenge): decreasing levels of spirochaete shedding by day 14 after challenge
- reduction in the number of spirochaetes compared to saline treated pigs ([5]; anterior colon): 93%
- gross pathology associated with dysentery ([5]; anterior colon, post mortem): reduced the signs of pathology associated with dysentery, and the severity of the pathology compared to saline in the anterior colon
- reduction in the number of spirochaetes compared to saline treated pigs ([5]; caecum): 91%
- improvement in gain compared to saline or antibiotic treatment [5, 7]: 24%
- total weight gained over the challenge period [5, 7]: 8.5 kg
- improvement in end weight vs saline treated pigs ([5]; days 19 and 20): 11% and 12%
- mean weight at the end of the trial ([5]; days 19 and 20 after infection): 15.1 kg
- reduction in the number of spirochaetes compared to saline treated pigs ([5]; faecal): 86%
- heavier than pigs treated with Lincocin at the end of the trial ([5]; pig, in vivo): 15%
- number of spirochaetes cultured from the hindgut at post mortem ([5]; pig, in vivo): significantly reduced the number of spirochaetes residing in the gut compared to saline controls; also recorded: performed as well as the Lincocin antibiotic treatment in reducing the number of spirochaetes in the caecum and colon
- variability of weight ([5]; pig, in vivo): reduce variability by increasing the weight gained by smaller pigs
- incidence of clinical signs in faeces (of 8 pigs) ([5]; post mortem): 3 pigs
- pigs showing bloody and mucoid faeces (of 8 pigs) ([5]; post mortem): 1 pig
- reduction in the number of spirochaetes compared to saline treated pigs ([5]; posterior colon): 84%
- gross pathology associated with dysentery ([5]; posterior colon, post mortem): completely prevented the development of pathology in the posterior colon
- production of IL-6 (IL-6): undetectable levels
- reduction in the presence of clinical symptoms compared to saline ([6]; 30 visits in first week of challenge): 36%
- heavier than saline treated peers at the termination of the experiment ([6]; after 2 weeks of challenge): 4.8 kg
- improvement in growth vs saline ([6]; after 2 weeks of challenge): 73%
- clinical signs of disease ([6]; first week of challenge): slightly reduced clinical signs of disease compared to saline-treated controls
- growth during the (first) week of App challenge ([6]; pig, in vivo): positive growth during the week of challenge
- growth in the second week of challenge ([6]; pig, in vivo): continued to gain weight
- pleurisy at necropsy (score 0-5) ([6]; pig, in vivo): same level of pleurisy as saline-treated controls
- weight gain over the 2 week period following challenge with App ([6]; pig, in vivo): increased weight gain compared to saline-treated controls, although this result was not statistically significant
- percentage of lung affected by App lesions ([6]; vs saline-treated controls): greatly reduced
- TNFα production (serum) (TNFα): reduced levels of TNF production
